One assay deals with T1, G-actin (Oryctolagus cuniculus, UniProt P68135).
T1 construct: Actin was prepared as described ([Mouilleron et al., 2008]); from tissue; host or cells: rabbit skeletal muscle (own knowledge of the cited method)
Kind of assay: Size exclusion chromatography of G-actin / MRTF-A(67–199) complexes. In kind it is binding. The note with it: SEC, recombinant MRTF-A(67–199). The method, then:
GST-fusions were expressed in E. coli Rosetta (DE3) pLysS (Novagen). Lysis was in 50 mM Tris-HCl pH 7.5, 300 mM NaCl, 1% TX-100, 5 mM DTT, 10 mM EDTA pH 8, 1 mM PMSF, 15 μg/mL Benzamidine, followed by passage through a French press. Following adsorption onto glutathione-Sepharose, proteins were recovered by cleavage with GST-3C protease at 4°C overnight in 50 mM Tris-HCl (pH 7.5), 100 mM NaCl, 1 mM DTT. Crm1 and Ran(1–180) Q69L were purified as described ([Güttler et al., 2010]).
Preparation of LatB-actin and fluorescence polarisation anisotropy assay were described ([Guettler et al., 2008]). Size exclusion chromatography was on Superdex 200 column equilibrated in 20 mM Tris (pH 8), 100 mM NaCl, 3 mM MgCl2, 0.2 mM EGTA, 0.3 mM TCEP [(tris(2-carboxyethyl)phosphine)], 5% (v/v) glycerol, calibrated with globular proteins of known molecular weight.
On the technique in general: SEC sorts molecules by how far they enter the pores of the column.

Another assay relates to Crm1. Description: GST pulldown of recombinant Crm1. The class given is binding. The note with it: Ran 1–180 Q69L, 3 hr at 4°C. The method, then:
For GST pulldown assays, glutathione-sepharose was saturated with GST-fusion proteins, washed in binding buffer (50 mM Tris-HCl pH 7.5, 100 mM NaCl, 10 mM MgCl2, 0.05% NP-40), and incubated with purified recombinant Crm1, Ran(1–180) Q69L or ERK2 for 3 hr at 4°C. After four washes with binding buffer, proteins were eluted in SDS loading buffer for analysis. For kinase assays, glutathione-Sepharose was saturated with GST-MRTF 2–199, washed in binding buffer, and incubated with purified recombinant ERK2 and actin in binding buffer with 250 μM ATP and 10 mg/ml BSA, at 30°C. The reaction was stopped by addition of SDS loading buffer.

B1: MRTF-A(67–199) WT: recombinant MRTF-A(67–199), intact RPEL domain (protein, UniProt Q8K4J6 67-199, looked up, fragment)
chain: SRPERAELVRMHILEETSAEPSLQAKQLKLKRARLADDLNEKIAQRPGPMELVEKNILPVESSLKEAIIVGQVNYPKVADSSSFDEDSSDALSPEQPASHESQGSVPSPLESRVSDPLPSATSISPTQVLSQL
For the molecule B1, the “apparent molecular mass of G-actin complex” value in the assay with G-actin (Superdex 200, 20 mM Tris (pH 8), 100 mM NaCl, 3 mM MgCl2, 0.2 mM EGTA, 0.3 mM TCEP, 5% glycerol) is given as 139.8 kDa. Also, in the assay with G-actin (Superdex 200, pH 8, calibrated with globular proteins), the “apparent stoichiometry of G-actin binding” value is recorded as 3.0 actins.

B2: MRTF residues 2–67: MRTF-A N-terminal residues 2–67 containing NES1 (protein, UniProt Q8K4J6 2-67, looked up, fragment)
chain: TLLEPEMLMMAVQSVLQLKLQQRRTREELVSQGIMPPLKSPAAFHEQRRSLERARTEDYLKRKIRS
Turning to B2, in the assay with Crm1, the “recovery of recombinant Crm1” value is on record as “could recover recombinant Crm1 from solution in a pulldown assay”.

The record behind these values is PMC4963197, “Phosphorylation acts positively and negatively to regulate MRTF-A subcellular localisation and activity” (eLife, 2016).
